Literature values as cited in PMC8239176.

Target: KLC1 (Homo sapiens) (UniProt Q07866)
UniProt Q07866, sequence (Q07866 whole entry): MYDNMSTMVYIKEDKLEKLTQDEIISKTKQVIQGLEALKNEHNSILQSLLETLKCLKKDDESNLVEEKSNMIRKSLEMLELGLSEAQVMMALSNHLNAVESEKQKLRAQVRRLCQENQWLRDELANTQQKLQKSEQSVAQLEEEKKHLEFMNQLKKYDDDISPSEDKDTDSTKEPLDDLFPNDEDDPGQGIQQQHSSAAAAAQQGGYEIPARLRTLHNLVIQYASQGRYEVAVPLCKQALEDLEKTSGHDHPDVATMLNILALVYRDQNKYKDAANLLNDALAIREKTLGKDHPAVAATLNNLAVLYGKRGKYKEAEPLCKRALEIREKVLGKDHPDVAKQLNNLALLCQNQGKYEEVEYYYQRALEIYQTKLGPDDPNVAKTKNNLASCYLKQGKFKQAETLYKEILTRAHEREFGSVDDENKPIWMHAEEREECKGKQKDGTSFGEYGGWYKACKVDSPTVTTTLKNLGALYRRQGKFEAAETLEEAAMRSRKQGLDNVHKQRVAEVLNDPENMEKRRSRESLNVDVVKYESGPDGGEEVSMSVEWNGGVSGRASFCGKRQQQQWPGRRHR

- Kd: 3.8 µM
Substance: SFPQ (from UniProt P23246)
